Data reported in the supplement of paper PMC12338614.
± gives the uncertainty stated by the source.

B1: library; numbered along this chain (parent)
chain: MEVVDPQQLGMFTEGELMSVGMDTFIHRIDSTEVIYQPRRKRAKLIGKYLMGDLLGEGSYGKVKEVLDSETLCRRAVKILKKKKLRRIPNGEANVKKEIQLLRRLRHKNVIQLVDVLYNEEKQKMYMVMEYCVCGMQEMLDSVPEKRFPVCQAHGYFCQLIDGLEYLHSQGIVHKDIKPGNLLLTTGGTLKISDLGVAEALHPFAADDTCRTSQGSPAFQPPEIANGLDTFSGFKVDIWSAGVTLYNITTGLYPFEGDNIYKLFENIGKGSYAIPGDCGPPLSDLLKGMLEYEPAKRFSIRQIRQHSWFRKKHPPAEAPVPIPPSPDTKDRWRSMTVVPYLEDLHGADEDEDLFDIEDDIIYTQDFTVPGQVPEEEASHNGQRRGLPKAVCMNGTEAAQLSTKSRAEGRAPNPARKACSASSKIRRLSACKQQ

Variants of: B1
Assay: STK11 functional score (HeLa growth suppression), rescaled enrichment; synonymous median = 1, nonsense median = 0 (normalised score)
Conditions: with HeLa; variant type: missense
Protocol: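 Deep mutational scan (TileSeq/POPCode codon randomisation) of full-length codon-optimised STK11 cDNA integrated at a Bxb1 landing pad (AAVS1) in HeLa cells. Restoring functional STK11 suppresses HeLa proliferation. Variant frequencies were measured by NGS before and after about two weeks of growth. The error-corrected enrichment log-ratio was rescaled so that synonymous median = 1 and nonsense median = 0, scores above 1 were compressed, and codon-level and three biological replicate scores were combined; error is the bootstrapped standard error. Scale: synonymous median = 1, nonsense median = 0; below 0.5 = damaging.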

Variant | STK11 functional score
G135S | 1.65 ± 0.17
A406S | 1.41 ± 0.33
P323N | 1.53 ± 0.15
P6E | 1.24 ± 0.47
K96G | 1.31 ± 0.19
N380I | 1.04 ± 0.29
E145C | 1.41 ± 0.52
S401E | 1.24 ± 0.46
V243M | 0.378 ± 0.14
V337I | 1.48 ± 0.16
G346D | 0.435 ± 0.27
K423G | 1.56 ± 0.2
L290F | 0.664 ± 0.42
L400E | 1.58 ± 0.21
G346K | 1.61 ± 0.25
T209M | 1.43 ± 0.33
V133G | 1.14 ± 0.091
K83C | 1.39 ± 0.23
I267G | 0.602 ± 0.3
V337T | 1.61 ± 0.15
D277A | 0.843 ± 0.41
I248S | 0.859 ± 0.097
F219H | 1.18 ± 0.66
S240N | 1.11 ± 0.44

Variant | STK11 functional score
T249K | -0.0774 ± 0.081
I267R | 1.01 ± 0.33
P314I | 1.5 ± 0.15
Y118T | 1.61 ± 0.14
Q137K | 0.752 ± 0.41
N259L | 1.26 ± 0.31
V133R | 0.519 ± 0.12
R39V | 1.22 ± 0.14
K84T | 0.646 ± 0.11
G233N | 1.19 ± 0.26
Y362M | 1.61 ± 0.21
I361Y | 0.312 ± 0.54
L17R | 1.22 ± 0.26
R310P | 0.954 ± 0.3
R405K | 1.33 ± 0.42
E256D | 1.63 ± 0.4
R103V | 0.764 ± 0.15
S31V | 1.58 ± 0.21
T402E | 1.59 ± 0.24
K41L | 1.27 ± 0.24
V128I | 1.63 ± 0.36
V143T | 1.59 ± 0.19
Y131H | 1.2 ± 0.44
C132G | 0.44 ± 0.083

Variant | STK11 functional score
H345Y | 1.12 ± 0.3
L290M | 0.891 ± 0.12
L67T | 0.53 ± 0.095
P89N | 1.67 ± 0.19
E265S | 1.49 ± 0.32
G268L | 1.56 ± 0.23
K329S | 0.673 ± 0.35
A429W | 1.21 ± 0.38
G279I | 1.41 ± 0.4
A200C | 1.13 ± 0.096
K124S | 0.355 ± 0.12
T185W | 0.387 ± 0.09
C132F | 0.255 ± 0.089
F298P | 1.16 ± 0.26
C158G | 0.418 ± 0.096
Q37V | 1.38 ± 0.15
R415F | 0.952 ± 0.52
R409I | 1.24 ± 0.2
I111R | 1.16 ± 0.13
I46E | 1.57 ± 0.41
Y261W | 0.609 ± 0.091
A316G | 1.25 ± 0.19
Y126P | -0.144 ± 0.083
M125H | 0.857 ± 0.64

Variant | STK11 functional score
Q382Y | 1.28 ± 0.22
L286W | 1.16 ± 0.093
D327T | 1.6 ± 0.19
K62D | 1.61 ± 0.2
I274H | 0.363 ± 0.074
E165Y | 1.24 ± 0.15
D350M | 1.65 ± 0.15
K84C | 1.68 ± 0.42
V133Y | 1.55 ± 0.39
V3A | 1.46 ± 0.16
I79M | 0.465 ± 0.1
A43Y | 1.67 ± 0.16
R211D | 1.68 ± 0.17
M289Y | -0.218 ± 0.07
V3D | -0.174 ± 0.11
K431C | 1.59 ± 0.34
R39E | -0.363 ± 0.48
K175A | 0.904 ± 0.14
H154N | 0.196 ± 0.14
M18T | 1.62 ± 0.27
C73D | 1.49 ± 0.27
G270V | 1.26 ± 0.25
Y49L | 0.852 ± 0.22
D352Q | 0.828 ± 0.15

Variant | STK11 functional score
D348L | 1.3 ± 0.15
G288D | -0.347 ± 0.084
T212W | 1.41 ± 0.36
N119L | 1.17 ± 0.27
N393V | 0.689 ± 0.33
Q214A | 1.18 ± 0.19
Q100W | 0.696 ± 0.17
V110W | 0.328 ± 0.38
D359T | 1.57 ± 0.21
G394Y | 1.38 ± 0.13
D53S | 1.51 ± 0.24
C391R | 1.6 ± 0.29
K388R | 1.54 ± 0.28
S213H | 1.68 ± 0.18
V368C | 1.58 ± 0.18
Q432L | 1.55 ± 0.15
L140K | 1.06 ± 0.089
F255G | 0.519 ± 0.14
S31Q | 1.37 ± 0.39
K84E | 0.845 ± 0.33
G215S | 1.11 ± 0.18
D348V | 0.78 ± 0.44
V372E | 1.23 ± 0.38
P149W | 0.608 ± 0.17

Variant | STK11 functional score
S240D | 0.841 ± 0.36
G279Y | 1.43 ± 0.33
P222D | -0.103 ± 0.14
K44I | 1.16 ± 0.26
K44N | 1.08 ± 0.33
M22S | 1.68 ± 0.34
L183D | 0.119 ± 0.32
V95H | 1.64 ± 0.19
C210W | 0.601 ± 0.2
A316R | 0.901 ± 0.098
M18C | 0.902 ± 0.4
C132Q | 1.58 ± 0.14
S307W | 1.47 ± 0.15
Y166A | 1.47 ± 0.24
E199W | 0.303 ± 0.12
Q302R | 1.53 ± 0.25
D68R | 1.07 ± 0.21
D352P | 1.6 ± 0.14
F255M | 0.792 ± 0.1
L400D | 1.19 ± 0.3
E349F | 0.989 ± 0.64
I111Q | 1.66 ± 0.17
E98R | 0.172 ± 0.083
A347G | 1.12 ± 0.28

Variant | STK11 functional score
T250Y | 1.31 ± 0.65
E98Q | 0.273 ± 0.089
I303Q | 1.56 ± 0.24
C391F | 0.922 ± 0.52
P314T | 1.54 ± 0.17
T71F | 1.17 ± 0.47
D352M | 1.2 ± 0.33
T230E | 1.65 ± 0.17
T249S | 1.24 ± 0.27
K48Y | 1.4 ± 0.13
K97P | 1.1 ± 0.4
R426F | 1.3 ± 0.43
E65P | 0.657 ± 0.32
L195V | 0.433 ± 0.14
E317A | 1.53 ± 0.22
A93S | 0.907 ± 0.2
L140I | 1.15 ± 0.12
K124W | 0.166 ± 0.11
G370V | 0.706 ± 0.17
N226I | 0.495 ± 0.48
M289R | -0.101 ± 0.11
D365W | 1.32 ± 0.24
Y36V | 0.824 ± 0.12
